The results in this text go back to PMC9407403 (Proceedings of the National Academy of Sciences of the …, 2022).

In the assay the target is T1, SARS-CoV-2 receptor-binding domain (RBD), recombinant antigen (SARS-CoV-2, UniProt P0DTC2).
T1 construct: source: bought: Wantai BioPharm (microplates precoated with recombinant RBD)
Description: ELISA. Conditions: both partners purified.

B1: neutralizing antibody X10 (mouse monoclonal antibody) (antibody, V domains shown)
VH: EVQLQQSGPELVKPGASVKISCKTSGYTFTEYTLHWVKQSHGKSLEWIGGFDPNFGGATYNLKFEDKATLTVDKSSNTAYMELRSLTSEDSAVFYCARGDYGTSYAYFDFWGQGTTLTVSS
VL: DIVLTQSPASLAVSLGQRAAISCRASQSVSTSSHNYVHWYQQRPGQPPKLLIKYASNLECGVPARFSGSGSGTDFTLNIHPVEEEDSAAYYCQHSWEIPYTFGGGTKLEIK
notes: also called nAb X10; cluster 2 representative; source: mouse hybridoma, ascitic fluid, purified (protein A agarose)
B1: the binding result is reported as “binds”.

B2: neutralizing antibody X17 (mouse monoclonal antibody) (antibody, V domains shown)
VH: QVQLQQSGAELARPGASVKLSCKASGYTFTFYWMQWLKQRPGQGLEWIGAIYPGDGDTRYTQRFKDKATLTADKSSSTAYIQLSSLASEDSAVYYCAGGEYDNYGFDYWGQGTTLTVSS
VL: DIQMTQTTSSLSASLGDRVTISCRASQDISNYLNWYQQKPDGTVKLLIYYTSRLHSGVPSRFSGSGSGTDYSLTISNLEQEDIATYFCQQGTTLPYTFGGGTKLEIK
notes: also called nAb X17; cluster 1 representative; source: mouse hybridoma, ascitic fluid, purified (protein A agarose)
As for B2, the binding result was “binds”.
